Target: CdiI^YPIII immunity protein from Yersinia pseudotuberculosis YPIII, His6-tagged (Yersinia pseudotuberculosis YPIII)
Test: BLI

**Q.** For “CdiA-CT^YPIII, C-terminal toxin domain of CdiA from Yersinia pseudotuberculosis YPIII (domain or fragment)”, which Kd is on record?
**A.** Its Kd is 16 nM.

Source: publication PMC4658667
